Test results: the supplement of paper PMC12458215
± gives the uncertainty stated by the source.

System: HEK293T
Test: plasma membrane surface immunostaining intensity (anti-HA, deep receptor scanning) (arbitrary fluorescence units); higher = higher plasma membrane expression

| Sequence | plasma membrane surface immunostaining intensity (GPCR class: A (Olfactory)) | plasma membrane surface immunostaining intensity (GPCR class: A) |
| --- | --- | --- |
| MKLWMESHLIVPETRPSPRMMSNQTLVTEFILQGFSEHPEYRVFLFSCFLFLYSGALTGNVLITLAITFNPGLHAPMYFFLLNLATMDIICTSSIMPKALASLVSEESSISYGGCMAQLYFLTWAASSELLLLTVMAYDRYAAICHPLHYSSMMSKVFCSGLATAVWLLCAVNTAIHTGLMLRLDFCGPNVIIHFFCEVPPLLLLSCSSTYVNGVMIVLADAFYGIVNFLMTIASYGFIVSSILKVKTAWGRQKAFSTCSSHLTVVCMYYTAVFYAYISPVSGYSAGKSKLAGLLYTVLSPTLNPLIYTLRNKEVKAALRKLFPFFRN [OR13A1] | 120 ± 26 | – |
| MERINHTSSVSEFILLGLSSRPEDQKTLFVLFLIVYLVTITGNLLIILAIRFNPHLQTPMYFFLSFLSLTDICFTTSVVPKMLMNFLSEKKTISYAGCLTQMYFLYALGNSDSCLLAVMAFDRYVAVCDPFHYVTTMSHHHCVLLVAFSCSFPHLHSLLHTLLLNRLTFCDSNVIHHFLCDLSPVLKLSCSSIFVNEIVQMTEAPIVLVTRFLCIAFSYIRILTTVLKIPSTSGKRKAFSTCGFYLTVVTLFYGSIFCVYLQPPSTYAVKDHVATIVYTVLSSMLNPFIYSLRNKDLKQGLRKLMSKRS [OR1L8] | 177 ± 72 | – |
| MPNFTDVTEFTLLGLTCRQELQVLFFVVFLAVYMITLLGNIGMIILISISPQLQSPMYFFLSHLSFADVCFSSNVTPKMLENLLSETKTISYVGCLVQCYFFIAVVHVEVYILAVMAFDRYMAGCNPLLYGSKMSRTVCVRLISVPYVYGFSVSLICTLWTYGLYFCGNFEINHFYCADPPLIQIACGRVHIKEITMIVIAGINFTYSLSVVLISYTLIVVAVLRMRSADGRRKAFSTCGSHLTAVSMFYGTPIFMYLRRPTEESVEQGKMVAVFYTTVIPMLNPMIYSLRNKDVKEAVNKAITKTYVRQ [OR5M9] | 133 ± 54 | – |
| MAWENQTFNSDFILLGIFNHSPTHTFLFFLVLAIFSVAFMGNSVMVLLIYLDTQLHTPMYFLLSQLFLMDLMLICSTVPKMAFNYLSGSKSISMAGCATQIFFYVSLLGSECFLLAVMSYDRYIAICHPLRYTNLMRPKICGLMTAFSWILGSMDAIIDAVATFSFSYCGSREIAHFFCDFPSLLILSCNDTSIFEKVLFICCIVMIVFPVAIIIASYARVILAVIHMGSGEGRRKAFTTCSSHLMVVGMYYGAGLFMYIRPTSDRSPMQDKLVSVFYTILTPMLNPLIYSLRNKEVTRALRKVLGKGKCGE [OR2M5] | 111 ± 20 | – |
| MNPPSGPRVPPSPTQEPSCMATPAPPSWWDSSQSSISSLGRLPSISPTAPGTWAAAWVPLPTVDVPDHAHYTLGTVILLVGLTGMLGNLTVIYTFCRSRSLRTPANMFIINLAVSDFLMSFTQAPVFFTSSLYKQWLFGETGCEFYAFCGALFGISSMITLTAIALDRYLVITRPLATFGVASKRRAAFVLLGVWLYALAWSLPPFFGWSAYVPEGLLTSCSWDYMSFTPAVRAYTMLLCCFVFFLPLLIIIYCYIFIFRAIRETGRALQTFGACKGNGESLWQRQRLQSECKMAKIMLLVILLFVLSWAPYSAVALVAFAGYAHVLTPYMSSVPAVIAKASAIHNPIIYAITHPKYRVAIAQHLPCLGVLLGVSRRHSRPYPSYRSTHRSTLTSHTSNLSWISIRRRQESLGSESEVGWTHMEAAAVWGAAQQANGRSLYGQGLEDLEAKAPPRPQGHEAETPGKTKGLIPSQDPRM [OPN4] | – | 519 ± 36 |
| MLGPAYNHTMETPASFLLVGIPGLQSSHLWLAISLSAMYITALLGNTLIVTAIWMDSTRHEPMYCFLCVLAAVDIVMASSVVPKMVSIFCSGDSSISFSACFTQMFFVHLATAVETGLLLTMAFDRYVAICKPLHYKRILTPQVMLGMSMAVTIRAVTFMTPLSWMMNHLPFCGSNVVVHSYCKHIALARLACADPVPSSLYSLIGSSLMVGSDVAFIAASYILILRAVFDLSSKTAQLKALSTCGSHVGVMALYYLPGMASIYAAWLGQDIVPLHTQVLLADLYVIIPATLNPIIYGMRTKQLLEGIWSYLMHFLFDHSNLGS [OR52I1] | 157 ± 16 | – |
| MGMEGLLQNSTNFVLTGLITHPAFPGLLFAVVFSIFVVAITANLVMILLIHMDSRLHTPMYFLLSQLSIMDTIYICITVPKMLQDLLSKDKTISFLGCAVQIFYLTLIGGEFFLLGLMAYDRYVAVCNPLRYPLLMNRRVCLFMVVGSWVGGSLDGFMLTPVTMSFPFCRSREINHFFCEIPAVLKLSCTDTSLYETLMYACCVLMLLIPLSVISVSYTHILLTVHRMNSAEGRRKAFATCSSHIMVVSVFYGAAFYTNVLPHSYHTPEKDKVVSAFYTILTPMLNPLIYSLRNKDVAAALRKVLGRCGSSQSIRVATVIRKG [OR2T35] | 126 ± 14 | – |
